The nature of this data set: soluble on expression in E. coli; label from the status in PepcDB or PDB records.
Regarding “ARICDVFSRFDETPLASASVAQVHAACLKTGEEVVVKVVRPGLKPIIGQDLAWLFILARMAERVSADARLLHPVQVVMDYEKTIYDELDLLREAANSSQLRRNFEGSDLLYVPQVYWDWCR”, the “soluble on expression in E. coli” value is recorded as “not soluble”.

As to “ARKLFVLDTNVLLHDPSSLFRFEEHDIFLPMMTLEELDHQKKGMSEVARNARQVSRSLDSLVQDADNLDDGLALNALGNKDATGRLMFQTTAIHSTLPSDLPMGKADNQILGVVRALQERHPQREVVLVSKDINMRLKARALGMAAEDYYNDHVLEDTDLMYS”, the “soluble on expression in E. coli” value is given as “not soluble”. Take “ARKRFAGLEPVEMRMEVKAGDHGNTIINDVYSNDVYSLTLALDFQRRRTAETCLKKVLILSDILQSGMPPEELYRHVAGQLQVYALDFFVGIGEEIASHRTCFAGMSAVFFKDVATFLTSGEIERFSNSCILLKGARKYRFEQITERLVQQVH”: the “soluble on expression in E. coli” value is “not soluble”.

With “ARSEKRVPMTRLRKRVAERLLEAKNSTAMLTTFNEVNMKPIMDLRKQYGEAFEKRHGIRLGFMSFYVKAVVEALKRYPEVNASIDGDDVVYHNYFDVSMAVSTPRGLVTPVLRDVDTLGMADIEKKIKELAVKGRDGKLTVEDLTGGNFTITNGGVFGSLMSTPIINPPQSAILGMHAIKDRPMAVNGQVEILPMMYLALSYDHRLIDGRESVGFLVTIKELLEDPTRLLLDV”, the “soluble on expression in E. coli” value is “soluble”.

Consider “ARSSRFTRQADETLTDSEGSGLQFINFDEGSASNPIIARDQEGSGQMYDEEGSGNTLLFDSETPIQVMNVTGTEAEPTDSKVFNQSINITDSDVETLVIKVHLPQKTTSQLLDDLKDDTAQQTNPINTLDTAVSLTSMLNELLGKIQDATTQ”, for which the “soluble on expression in E. coli” value is “not soluble”.

Consider “ARVDQTPRSVTKETGESLTINCVLRDASYALGSTCWYRKKSGEGNEESISKGGRYVETVNSGSKSFSLRINDLTVEDGGTYRCGLGVAGGYCDYALCSSRYAECGDGTAVTVN”, for which the “soluble on expression in E. coli” value is listed as “soluble”. Take “ASEKVGMNLVTAQGVGQSIGTVVIDETEGGLKFTPHLKALPPGEHGFHIHANGSCQPAIKDGQAVAAEAAGGHLDPQNTGKHEGPEGQGHLGDLPVLVVNNDGIATEPVTAPRLKSLDEVKDKALMIHVGGDNMSDQPKPLGGGGTRYACGVIK”: the “soluble on expression in E. coli” value is “soluble”. In the case of “ASNVHRVQQVIHAAIATNRKLAVAGRSMVKVVSIAERLGYLEAPDDLFIDIEEVSKYDDERVAIITTGSQGEPMSALSRMAKGAHRQITITENDTVIIAATPIPGNERSVSTIVDLLHRIGADVIFGHGKVHASGHGSAEELKLMLNLMRPKFFVPIHGEFRMQHAHKELAKSVGIREEAIFLVDKGEVVEFRNGQGRKAGKVPSGNVLIDGLGVGDVGNIVLRDRRLLSKDGILVVVVTLNKQSGTILSGPNIISRGFVYVRESEKLIEEANELVTETLKKCVTENVNEWSSLKSNVREVLSRFLFEKTKRRPMILPIIME” it was “soluble”. In the case of “ASQFFFNQRTHLVSDVIDGAIIASPWNNLARLESDPAIRIVVRRDLNKNNVAVISGGGSGHEPAHVGFIGKGMLTAAVCGDVFASPSVDAVLTAIQAVTGEAGCLLIVKNYTGDRLNFGLAAEKARRLGYNVEMLIVGDDISLPDNKHPRGIAGTILVHKIAGYFAERGYNLATVLREAQYAASNTFSLGVALSSCHLPQETDAAPRHHPGHAELGMGIHGEPGASVIDTQNSAQVVNLMVDKLLAALPETGRLAVMINNLGGVSVAEMAIITRELASSPLHSRIDWLIGPASLVTALDMKGFSLTAIVLEESIEKALLTEVETSNWPTPVPPREITCVVSSHASARVEFQPSANALVAGIVELVTATLSDLETHLNALDAKVGDGDTGSTFAAAAREIASLLHRQQLPLNNLATLFALIGERLTVVMGGSSGVLMSIFFTAAGQKLEQGANVVEALNTGLAQMKFYGGADEGDRTMIDALQPALTSLLAQPKNLQAAFDAAQAGAERTCLSSKANAGRASYLSSESLLGNMDPGAQALAMVFKALAESELG” it was “soluble”. As to “ASTQGISEDLYNRLVEMATISQAAYADLCNIPSTIIKGEKIYNAQTDINGWILRDDTSKEIITVFRGTGSDTNLQLDTNYTLTPFDTLPQCNDCEVHGGYYIGWISVQDQVESLVKQQASQYPDYALTVTGHSLGASMAALTAAQLSATYDNVRLYTFGEPRSGNQAFASYMNDAFQVSSPETTQYFRVTHSNDGIPNLPPAEQGYAHGGVEYWSVDPYSAQNTFVCTGDEVQCCEAQGGQGVNDAHTTYFGMTSGACTW”, the “soluble on expression in E. coli” value was “soluble”. In the case of “ATKEFIYLVRGMTPEQGQAALDLKVPGVYGIEEFRRFYPAGDVTAHMVGFTDLDDHGREGVELAYDDWLAGVPGKRQVIKDRRGRLIKDVQVTKNAKAGKTLALSID” it was “not soluble”; in that of “ATPSRKQRVSTLWISDVHLGTRDCQAEHLSAFLKRYQADKVYLVGDIIDGWKLRGGMYWPQAHTNVIRRLLTMSKRGTEVIYVTGNHDEFLRRYSKLVLGNIQLVDEAEHVTAEGRRLLVIHGDQFDVITRYHRWLAFLGDSAYEFTLTLNRWLNHWRAKYGYGYWSLSAYLKHKVKSAVNFISDFEEAIAHECVKRGLDGVVCGHIHHAEIRQVGGVEYLNCGDWVESCTALIEHLDGTIELFRLADAHLKASQPV”, “not soluble”; in that of “ATQRFLIEKFSQEQIGENIVCRVICTTGQIPIRDLSADISQVLKEKRSIKKVWTFGRNPACDYHLGNISRLSNKHFQILLGEDGNLLLNDISTNGTWLNGQKVEKNSNQLLSQGDEITVGVGVESDILSLVIFINDKFKQCLEQNKVDRIR”, “soluble”. The value for “ATSYMTCSAYQKVQDSEISFPAGVEVQVLEKQESGWWYVRFGELEGWAPSHYLVLDENEQPDPSGKE” was “soluble”; that for “AVSGLYSSSDDVIELTPSNFNREVIQSDGLWLVEFYAPWCGHCQRLTPEWKKAATALKDVVKVGAVNADKHQSLGGQYGVQGFPTIKIFGANKNKPEDYQGGRTGEAIVDAALSALR” was “soluble”; that for “AVSSATLEMESQRDEVAGLVRLGLSQSFGTLHIIPAIQELRELYPQLQVEVHLFDYKVDMLAEGLDLWVTNNEHLPEGYIAQRLTDCQFVVAASPDYLLKYDTPTEPNDLSLHNCLIYRSWERDYTGWAFTKGQQELNVKVSGNYSVDLAEAVRDAAIAGWGIAYLATYLLGDEFRTGKLIQLLPDWKASQSMPFYAVYPSRQHMPKKISAVINFIKQKIGNPCHWDQRLAPYISIPK” was “not soluble”.

Consider “DAYIGVLIDDLVTKGTNEPYRLLTSRAEYRLLLRHDNADLRLTDMGYELGMISEERYARFNEKRQQIDAEIKRLSDIRIKPNEHTQAIIEQHGGSRLKDGILAIDLLRRPEMTYDIILEILEEEHQLNADVEEQVEIQTKYEGYINKSLQQVEKVKRMEEKKIPEDLDYSKIDSLATEAREKLSEVKPLNIAQASRISGVNPADISILLIYLEQG”, for which the “soluble on expression in E. coli” value is on record as “not soluble”. The value for “DDFEDSLEYLEPLDHDAYIVRLNFTGENTTEPIISYMTKTHNIDVNILEADIKNTKNGSLGFLVIHIPHISEEHFKQFKHNLHEQHVNVEVLKHG” was “not soluble”; that for “DGPYLQILEQPKQRGFRFRYVCEGPSHGGLPGASSEKNKKSYPQVKICNYVGPAKVIVQLVTNGKNIHLHAHSLVGKHCEDGVCTVTAGPKDMVVGFANLGILHVTKKKVFETLEARMTEACIRGYNPGLLVHSDLAYLQAEGGGDRQLTDREKEIIRQAAVQQTKEMDLSVVRLMFTAFLPDSTGSFTRRLEPVVSDAIYDSKAPNASNLKIVRMDRTAGCVTGGEEIYLLCDKVQKDDIQIRFYEEEENGGVWEGFGDFSPTDVHRQFAIVFKTPKYKDVNITKPASVFVQLRRKSDLETSEPKPFLYYPEIKDKEEVQRKRQK” was “soluble”. Take “DGSPAATPEIRVNHEPEPAGGATPGATLPKSPSQLRKGPPVPPPPKHTPSKEVKQEQILSLFEDTFVPEISVTTPSQPAEASEVAGGTQPAAGAQEPGETAASEAASSSLPAVVVETFPATVNGTVEGGSGAGRLDLPPGFMFKVQAQHDYTATDTDELQLKAGDVVLVIPFQNPEEQDEGWLMGVKESDWNQHKKLEKCRGVFPENFTERVP”: the “soluble on expression in E. coli” value was “soluble”. The value for “DGTSQLAELVDAAAERLEVADPVAAFKWRAQLPIEDSGRVEQQLAKLGEDARSQHIDPDYVTRVFDDQIRATEAIEYSRFSDWKLNPASAPPEPPDLSASRSAIDSLNNRMLSQIWSHWSLLSAPSCAAQLDRAKRDIVRSRHLDSLYQRALTTATQSYCQALPPA” was “soluble”.

On to “DITGIPTGFTELDRMTAGFQRNDLIIVAARPSVGKTAFALNIAQNVATKTDESVAIFSLEMGAEQLVMRMLCAEGNINAQNLRTGNLTEEDWGKLTMAMGSLSNSGIYIDDTPGIRVSEIRAKCRRLKQESGLGMILIDYLQLIQGSGRSKDNRQQEVSEISRELKSIARELQVPVIALSQLSRGVEQRQDKRPMMSDI”, for which the “soluble on expression in E. coli” value is “not soluble”.

For the sequence “DIVLTQSPTTMAASPGEKITITCSASSSISSNYLHWYQQKPGFSPKLLIYRTSNLASGVPARFSGSGSGTSYSLTIGTMEAEDVATYYCQQGSSIPLTFGAGTKLELKRADAAPTVSIFPPSSEQLTSGGASVVCFLNNFYPKDINVKWKIDGSERQNGVLNSWTDQDSKDSTYSMSSTLTLTKDEYERHNSYTCEATHKTSTSPIVKSFNRNEC”, the “soluble on expression in E. coli” value was “soluble”. The value for “DIVMTQTPKFLLVSAGDKVTITCKASQSVSNDLTWYQQKPGQSPKLLIYYASNRYTGVPDRFTGSGYGTDFTFTISTVQAEDLAVYFCQQDYGSPPTFGGGTKVEIKRTVAAPSVFIFPPSDEQLKSGTASVVCLLNNFYPREAKVQWKVDNALQSGNSQESVTEQDSKDSTYSLSSTLTLSKADYEKHKVYACEVTHQGLSSPVTKSFNRGEC” was “soluble”; that for “DKLTRQPFFIKLINYLQIHDDVTLRQIKRNFADTEHLERSIEDYVQAGYVLRENKHYYNAFELLENLDGLTLDSQIFVDDQSSIYQDLLALTFETYLSNQTNAALIIEKTDISRDALTLSNYFFKLNENFPLSRKQKPLYHLLGDVNPNYALKYMTTFLLKFWGKDVVKQKRPDIFVQALVLLGYLEQVGKQSYCLKMTFDKEKLIFAS” was “soluble”; that for “DLRGDLHMHTDYSEGAESLETMVEKAESMGYEYIAVTDHSRSQRIANGMDIETLKEQWKEIKSLSKRFRIKVLRGSEVEILKDGSLDYPDEILKELDVVVGAVHSGFAASEREMTGRIITALENKHLDILAHPSGRLLGKREAYAVNFGKVFEAAAENGKVMEINCQPSRLDLNDELIFRAKDYELKFCISTDSHSVSDLASMRYGLGQARRSWLEKEDIVNTYPYSRLKEVFKKLRD” was “not soluble”.

Consider “DPHAYEHNLKSWVGNTPVFATVNQLDLDEEQSTLLKGEVGVDWYWMGYEAGKYLAERHPKGSGKTNIALLLGPRTRGGTKPVTTGFYEAIKNSDIHIVDSFWADNDKELQRNLVQRVIDMGNIDYIVGSAVAIEAAISELRSADKTHDIGLVSVYLSHGVYRGLLRNKVLFAPTDKMVQQGRLSVMQAAHYLRHQPYEKQASPIIKPLTPKTLHDDTIEESLSPSEYRPTFSIKAVD”, for which the “soluble on expression in E. coli” value was “not soluble”.

These data come from the DeepSol protein solubility set.
